These results are taken from patent US20240101635A1 (AKSTON BIOSCIENCES, published 2024).

Where two headings read alike, the source gives them in different places.

The target in experiment [1] is biotinylated canine FcRn (canine, UniProt A0A8I3PFR8 25-347, biotinylated (site not stated)). Nature of the experiment: ELISA pH 5.5, fusion protein coated, biotinylated canine FcRn titrated. The procedure: Insulin-Fc fusion proteins comprising Fc fragments of canine or feline origin were diluted to 10 μg/ml in sodium bicarbonate pH 9.6 buffer and coated in duplicate on Maxisorb ELISA plate strips for 1-2 hours at RT. The strips were then washed 4 times with PBST (PBS/0.1% Tween-20) buffer and blocked with Superblock blocking reagent (ThermoFisher). Strips for FcRn binding were then washed again twice with pH 5.5 MES/NaCl/Tween (50 mM MES/l50 mM NaCl/0.1% Tween-20) buffer before addition of the FcRn reagent (biotinylated canine FcRn; Immunitrack). […] Serial dilutions (1:3× dilutions) of biotinylated FcRn reagent were prepared in pH 5.5 MES/NaCl/Tween/10% Superblock buffer at concentrations from 1000 ng/ml to 0.45 ng/ml and loaded at 100 μL/well using a multichannel pipettor onto the strips coated with the insulin-Fc fusion protein compounds. The assay plate was then incubated for 1 hour at room temperature. FcRn binding strips were washed 4 times with pH 5.5 MES/NaCl/Tween buffer and then loaded with 100 μl/well […] diluted 1:10000 in pH 5.5 MES/NaCl/10% Superblock buffer. After incubating for 45 minutes, strips were washed again 4 times with pH 5.5 MES/NaCl/Tween buffer. TMB was finally added to reveal the bound biotinylated-canine FcRn reagent, and the color development was stopped with the ELISA stop reagent. The plate was read in an ELISA plate reader at a wavelength of 450 nm. The OD values (proportional to the binding of canine-FcRn to the insulin-Fc fusion protein test compounds) were plotted against log concentrations of FcRn added to each well to generate binding curves using GraphPad Prism software. EC50 values for each binding curve were calculated to compare between different compounds.

Experiment [2] has as its target T1, human insulin receptor (human, UniProt P06213 28-1382).
T1 construct: whole, on cells; Endogenous receptor on IM-9 cells; also called IR
The experiment is described as follows: competition with biotinylated RHI on IM-9 cells, flow cytometry, 4 C. The procedure:
(§1) 40 μL of an IM-9 cell suspension (8×10⁶ cells/mL) was then added to each well by multichannel pipette, mixed again gently and incubated on ice for 30 min to allow competitive binding on the insulin receptor on IM-9 cells. Cells were then washed twice with 275 μL of ice-cold FACS wash buffer (HBSS/2 mM EDTA/0.1% Na-azide+0.5% horse serum) by centrifuging the V-bottom plate at 3000 rpm for 3 min and aspirating the supernatant. Cells were then resuspended in 40 μL of FACS staining medium containing 1:100 diluted Streptavidin-PE (Life Technologies) for 20 min on ice. Cells were then washed once with 275 μL of ice-cold FACS buffer and finally fixed with 3% paraformaldehyde for 10 min at room temp. Cells were then washed once with 275 μL of ice-cold FACS buffer and resuspended in 250 μl of FACS buffer for analysis.
(§2) The V-bottom plates containing cells were then analyzed on a Guava 8-HT flow cytometer (Millipore). Biotinylated-RHI binding to insulin receptor was quantitated by the median fluorescence intensity (MFI) of the cells on the FACS FL-2 channel for each concentration of the test compound. Control wells were labeled only with biotinylated-RHI and were used to calculate the percent (%) inhibition resulting from each test compound concentration. The % inhibition by test compounds of biotinylated-RHI binding on IM-9 cells was plotted against log concentrations of the test compound, and the resulting IC50 values were calculated using GraphPad Prism (GraphPad Software, La Jolla, CA) for the test compounds. Lower IC50 values of the test compound therefore indicate greater levels of biotinylated-RHI inhibition at lower concentrations indicating stronger binding of the insulin-Fc fusion protein to the insulin receptor. A control compound, such as unlabeled recombinant human insulin (RHI) was also used as an internal standard to generate an RHI IC50 against which a given compound IC50 could be ratioed (IC50(compound)/IC50(RHI)). Lower IC50 ratios have more similar binding to RHI (stronger binding to insulin receptor), while higher IC50 ratios have weaker binding to the insulin receptor relative to RHI.

In experiment [3] the target is T1, human insulin receptor. Described as above. The procedure:
as §1, §2
This is another data set of the same source.

Experiment [4] addresses T2, biotinylated recombinant human Fc(gamma) receptor I (human, UniProt P12314 16-288, biotinylated (site not stated)).
T2 construct: Bought reagent, used as surrogate for canine/feline Fc(gamma)RI; also called rhFc(gamma) receptor I; Fc(gamma)RI
Nature of the experiment: ELISA, fusion protein coated, biotinylated rhFc(gamma)RI in solution, pH 7.4. On the procedure: (§3) The binding of insulin-Fc fusion proteins to the Fc(gamma) receptor I at pH 7.4 was conducted using an ELISA assay as follows. Since neither canine nor feline Fc(gamma) receptor I was not commercially available, human Fc(gamma) receptor I (i.e., rhFc(gamma) receptor I) was used as a surrogate mammalian receptor. Insulin-Fc compounds were diluted to 10 μg/mL in sodium bicarbonate buffer at pH 9.6 and coated on Maxisorp (Nunc) microtiter plates overnight at 4° C., after which the microplate strips were washed 5 times with PBST (PBS/0.05% Tween-20) buffer and blocked with Superblock blocking reagent (ThermoFisher). Serial dilutions of biotinylated rhFc(gamma) receptor I (recombinant human Fc(gamma)R-I; R&D Systems) were prepared in PBST/10% Superblock buffer from 6000 ng/mL to 8.2 ng/mL and loaded at 100 μL/well onto the microplate strips coated with insulin-Fc fusion protein. The microtiter plate was incubated for 1 hour at room temperature after which the microplate strips were washed 5 times with PBST and then loaded with 100 μL/well of streptavidin-HRP diluted 1:10000 in PBST/10% Superblock buffer. After incubating for 45 min, the microplate strips were washed again 5 times with PBST. TMB was added to reveal the bound Fc(gamma) receptor I proteins and stopped with ELISA stop reagent (Boston Bioproducts). The plate was read in an ELISA plate reader at 450 nm, and the OD values (proportional to the binding of rhFc(gamma) receptor I to insulin-Fc protein) were plotted against log concentrations of rhFc(gamma) receptor I added to each well to generate binding curves using GraphPad Prism software.
The insulin-Fc fusion protein of SEQ ID NO: 40 was synthesized in HEK293 cells according to the procedure of Example 1 and purified using a Protein A column according to Example 3. The structure of the insulin-Fc fusion protein was confirmed according to Example 4 by non-reducing and reducing CE-SDS, and the sequence was further identified by LC-MS with glycan removal according to Example 5. The protein yield was 174 mg/L at this stage. The % homodimer for the sequence was measured by size-exclusion chromatography according to Example 6 and was determined to be 98.9% resulting in a homodimer titer of 172 mg/L which meets the manufacturing design criteria.

In experiment [5] the target is T2, biotinylated recombinant human …. The description is as above. On the procedure:
as §3
Low Fc(gamma) receptor binding is most likely to correlate with minimum immunogenicity.
The source holds these as a separate data set.

T1 sequence (P06213 28-1382): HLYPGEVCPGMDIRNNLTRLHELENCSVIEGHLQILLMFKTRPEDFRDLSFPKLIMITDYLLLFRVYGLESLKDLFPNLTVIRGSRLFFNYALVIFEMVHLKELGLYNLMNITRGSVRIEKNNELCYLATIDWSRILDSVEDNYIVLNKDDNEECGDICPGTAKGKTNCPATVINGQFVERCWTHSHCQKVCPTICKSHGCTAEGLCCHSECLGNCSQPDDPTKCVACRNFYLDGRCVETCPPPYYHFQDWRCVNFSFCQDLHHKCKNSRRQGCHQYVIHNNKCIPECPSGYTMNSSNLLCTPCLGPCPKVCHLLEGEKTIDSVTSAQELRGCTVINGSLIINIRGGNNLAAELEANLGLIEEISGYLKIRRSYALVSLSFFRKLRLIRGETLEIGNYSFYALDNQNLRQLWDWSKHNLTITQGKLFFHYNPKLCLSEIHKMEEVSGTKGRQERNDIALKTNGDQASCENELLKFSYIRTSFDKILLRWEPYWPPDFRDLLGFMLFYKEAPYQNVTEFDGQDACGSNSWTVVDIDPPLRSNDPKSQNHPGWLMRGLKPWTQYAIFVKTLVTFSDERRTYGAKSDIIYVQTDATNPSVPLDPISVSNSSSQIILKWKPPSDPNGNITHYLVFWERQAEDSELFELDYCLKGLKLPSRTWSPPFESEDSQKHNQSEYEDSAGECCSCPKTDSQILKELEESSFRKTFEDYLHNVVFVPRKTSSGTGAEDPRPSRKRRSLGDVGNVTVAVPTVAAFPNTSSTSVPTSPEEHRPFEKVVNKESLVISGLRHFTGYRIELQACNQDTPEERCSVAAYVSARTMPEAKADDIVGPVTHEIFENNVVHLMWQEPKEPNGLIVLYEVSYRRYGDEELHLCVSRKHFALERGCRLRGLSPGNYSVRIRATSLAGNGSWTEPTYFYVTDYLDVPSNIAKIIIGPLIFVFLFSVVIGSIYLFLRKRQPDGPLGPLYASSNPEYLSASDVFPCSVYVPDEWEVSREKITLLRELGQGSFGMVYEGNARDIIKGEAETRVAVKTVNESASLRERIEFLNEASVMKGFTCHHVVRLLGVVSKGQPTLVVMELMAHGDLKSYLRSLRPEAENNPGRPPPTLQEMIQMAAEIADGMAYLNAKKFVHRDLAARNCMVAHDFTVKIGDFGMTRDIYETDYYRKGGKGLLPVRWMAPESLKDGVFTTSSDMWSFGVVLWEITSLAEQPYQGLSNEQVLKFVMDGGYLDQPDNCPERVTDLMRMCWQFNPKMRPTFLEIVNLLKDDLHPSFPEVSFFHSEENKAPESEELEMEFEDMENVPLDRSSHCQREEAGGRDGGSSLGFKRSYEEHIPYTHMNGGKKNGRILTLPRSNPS
T2 sequence (P12314 16-288 limits assumed): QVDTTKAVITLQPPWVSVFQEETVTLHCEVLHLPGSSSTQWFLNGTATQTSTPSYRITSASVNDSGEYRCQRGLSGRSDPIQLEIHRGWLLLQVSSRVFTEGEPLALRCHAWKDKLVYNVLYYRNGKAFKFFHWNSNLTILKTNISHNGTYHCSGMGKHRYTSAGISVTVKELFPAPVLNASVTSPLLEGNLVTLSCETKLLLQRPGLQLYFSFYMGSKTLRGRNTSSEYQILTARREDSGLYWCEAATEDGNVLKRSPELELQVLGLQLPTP
Chain of biotinylated canine FcRn (A0A8I3PFR8 entry or part of it): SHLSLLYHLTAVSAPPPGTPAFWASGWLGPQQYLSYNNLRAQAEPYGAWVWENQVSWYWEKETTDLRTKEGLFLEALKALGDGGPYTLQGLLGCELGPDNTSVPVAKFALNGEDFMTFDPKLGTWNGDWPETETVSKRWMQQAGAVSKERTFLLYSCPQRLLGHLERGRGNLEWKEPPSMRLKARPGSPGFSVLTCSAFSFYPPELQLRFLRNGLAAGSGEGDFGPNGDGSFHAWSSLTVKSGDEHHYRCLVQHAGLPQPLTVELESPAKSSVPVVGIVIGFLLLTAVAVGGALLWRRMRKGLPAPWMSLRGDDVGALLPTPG

B1: insulin-Fc fusion protein of SEQ ID NO: 122 (Fc fusion)
chain: FVNQHLCGSHLVEALELVCGERGFHYGGGGGGSGGGGGIVEQCCTSTCSLDQLENYCGGGGGQGGGGQGGGGQGGGGGGEGPKCPVPEIPGAPSVFIFPPKPKDTLSISRTPEVTCLVVDLGPDDSNVQITWFVDNTEMHTAKTRPREEQFNSTYRVVSVLPILHQDWLKGKEFKCKVNSKSLPSAMERTISKAKGQPHEPQVYVLPPTQEELSENKVSVTCLIKGFHPPDIAVEWEITGQPEPENNYQTTPPQLDSDGTYFLYSRLSVDRSHWQRGNTYTCSVSHEALHSHHTQKSLTQSPG
notes: homodimer
Take B1: the EC50 in experiment [1] came out at 3.11 µg/mL. This molecule showed an IC50 in experiment [2] of 2540 nM.

B2: insulin-Fc fusion protein of SEQ ID NO: 112 (Fc fusion)
chain: FVNQHLCGSDLVEALALVCGERGFFYTDPTGGGPRRGIVEQCCHSICSLYQLENYCNGGGGSGGGGGEGPKCPVPEIPGAPSVFIFPPKPKDTLSISRTPEVTCLVVDLGPDDSNVQITWFVDNTEMHTAKTRPREEQFNSTYRVVSVLPILHQDWLKGKEFKCKVNSKSLPSAMERTISKAKGQPHEPQVYVLPPTQEELSENKVSVTCLIKGFHPPDIAVEWEITGQPEPENNYQTTPPQLDSDGTYFLYSRLSVDRSHWQRGNTYTCSVSHEALHSHHTQKSLTQSPG
notes: Feline IgG2 Fc, B16A insulin polypeptide; homodimer
Consider B2, for which the IC50 in experiment [3] and in experiment [2] was 53 nM throughout.

B3: insulin-Fc fusion protein of SEQ ID NO: 110 (Fc fusion)
chain: FVNQHLCGSDLVEALALVCGERGFFYTDPTGGGPRRGIVEQCCHSICSLYQLENYCNGGGGAGGGGGEGPKCPVPEIPGAPSVFIFPPKPKDTLSISRTPEVTCLVVDLGPDDSNVQITWFVDNTEMHTAKTRPREEQFNSTYRVVSVLPILHQDWLKGKEFKCKVNSKSLPSAMERTISKAKGQPHEPQVYVLPPTQEELSENKVSVTCLIKGFHPPDIAVEWEITGQPEPENNYQTTPPQLDSDGTYFLYSRLSVDRSHWQRGNTYTCSVSHEALHSHHTQKSLTQSPG
notes: homodimer
Regarding B3, the IC50 in experiment [3] was found to be 41 nM.

B4: insulin-Fc fusion protein of SEQ ID NO: 106 (Fc fusion)
chain: FVNQHLCGSDLVEALYLVCGERGFFYTDPTGGGPRRGIVEQCCHSICSLYQLENYCNGGGGSGGGGGEGPKCPVPEIPGAPSVFIFPPKPKDTLSISRTPEVTCLVVDLGPDDSNVQITWFVDNTEMHTAKTRPREEQFNSTYRVVSVLPILHQDWLKGKEFKCKVNSKSLPSAMERTISKAKGQPHEPQVYVLPPTQEELSENKVSVTCLIKGFHPPDIAVEWEITGQPEPENNYQTTPPQLDSDGTYFLYSRLSVDRSHWQRGNTYTCSVSHEALHSHHTQKSLTQSPG
notes: homodimer
For the molecule B4, the IC50 in experiment [3] and in experiment [2] was 22 nM throughout.

B5: insulin-Fc fusion protein of SEQ ID NO: 108 (Fc fusion)
chain: FVNQHLCGSDLVEALALVCGERGFFYTDPTGGGPRRGIVEQCCHSICSLYQLENYCNGGGGSGGGGDCPKCPPPEMLGGPSIFIFPPKPKDTLSISRTPEVTCLVVDLGPDDSDVQITWFVDNTQVYTAKTSPREEQFNSTYRVVSVLPILHQDWLKGKEFKCKVNSKSLPSPIERTISKDKGQPHEPQVYVLPPAQEELSRNKVSVTCLIEGFYPSDIAVEWEITGQPEPENNYRTTPPQLDSDGTYFLYSRLSVDRSRWQRGNTYTCSVSHEALHSHHTQKSLTQSPG
notes: about 49% homodimer
In the case of B5, the IC50 in experiment [3] and in experiment [2] was 62 nM in each case.

B6: insulin-Fc fusion protein of SEQ ID NO: 60 (Fc fusion)
chain: FVNQHLCGSDLVEALALVCGERGFFYTDPTGGGPRRGIVEQCCHSICSLYQLENYCNGGGGAGGGGDCPKCPAPEMLGGPSVFIFPPKPKDTLLIARTPEVTCVVVDLDPEDPEVQISWFVDGKQMQTAKTQPREEQFSGTYRVVSVLPIGHQDWLKGKQFTCKVNNKALPSPIERTISKARGQAHQPSVYVLPPSREELSKNTVSLTCLIKDFFPPDIDVEWQSNGQQEPESKYRTTPPQLDEDGSYFLYSKLSVDKSRWQRGDTFICAVMHEALHNHYTQESLSHSPG
notes: homodimer; also called cNg-S; cNg-NB139-S
As for B6, the “fold lower Fc(gamma)RI binding than SEQ ID NO: 52” value in experiment [4] came to 4 fold lower. Besides, the “Ratio to SEQ ID NO: 52” value in experiment [5] came out at 0.24 ratio.

B7: insulin-Fc fusion protein of SEQ ID NO: 62 (Fc fusion)
chain: FVNQHLCGSDLVEALALVCGERGFFYTDPTGGGPRRGIVEQCCHSICSLYQLENYCNGGGGAGGGGDCPKCPAPEMLGGPSVFIFPPKPKDTLLIARTPEVTCVVVDLDPEDPEVQISWFVDGKQMQTAKTQPREEQFDGTYRVVSVLPIGHQDWLKGKQFTCKVNNKALPSPIERTISKARGQAHQPSVYVLPPSREELSKNTVSLTCLIKDFFPPDIDVEWQSNGQQEPESKYRTTPPQLDEDGSYFLYSKLSVDKSRWQRGDTFICAVMHEALHNHYTQESLSHSPG
notes: homodimer; also called cNg-D; cNg-NB139-D
Consider B7, for which the “fold of Fc(gamma) receptor binding activity against SEQ ID NO: 60 and SEQ ID NO: 64” value in experiment [4] is around 2 fold. For the same molecule, in experiment [5], the “Ratio to SEQ ID NO: 52” value turned out to be 0.44 ratio.

B8: insulin-Fc fusion protein of SEQ ID NO: 124 (Fc fusion)
chain: FVNQHLCGSHLVEALELVCGERGFHYGGGGGGSGGGGGIVEQCCTSTCSLDQLENYCGGGGGQGGGGQGGGGQGGGGGDCPKCPPPEMLGGPSIFIFPPKPKDTLSISRTPEVTCLVVDLGPDDSDVQITWFVDNTQVYTAKTSPREEQFSSTYRVVSVLPILHQDWLKGKEFKCKVNSKSLPSPIERTISKDKGQPHEPQVYVLPPAQEELSRNKVSVTCLIEGFYPSDIAVEWEITGQPEPENNYRTTPPQLDSDGTYFLYSRLSVDRSRWQRGNTYTCSVSHEALHSHHTQKSLTQSPG
notes: homodimer
With B8, the EC50 in experiment [1] was determined as 6.92 µg/mL.
